Measured values reported in patent US7078382B1, “Modulation of eNOS activity and therapeutic uses thereof” (Genentech, Inc., priority 1999, dated 2006).

Assays:
KDR receptor = KDR receptor (Homo sapiens, UniProt P35968); assay: KDR receptor binding ELISA (inhibition of biotinylated native VEGF (8-109) binding); details: second figure of the cell, ratio to native VEGF (8-109)
Description: Receptor binding assays were performed in 96-well immunoplates (Maxisorp, Nunc-Immunoplate, Nalge Nunc International, Rochester, N.Y.). Each well was coated with 100 μl of a solution containing 8 μg/ml of a monoclonal antibody to KDR known as MAKD5 (Genentech, South San Francisco, Calif.) in 50 mM carbonate buffer at pH 9.6 and incubated at 4° C. overnight. The supernatant was discarded, the wells were washed three times in washing buffer (0.05% Tween 20 in PBS), and the plate was blocked (150 μl per well) with block buffer (0.5% BSA, 0.01% thimerosal in PBS) at room temperature for one hour. The supernatant was discarded, and the wells were washed.
Aliquots of this mixture (100 μl) were added to the precoated microtiter wells and the plate was incubated for 1 hour at room temperature. […] The wells were then incubated with 3, 3′, 5,5′-tetramethyl benzidine (0.2 gram/liter; Kirkegaard & Perry Laboratories, Gaithersburg, Md.) for about 10 minutes at room temperature. Absorbance was read at 450 nm on a Vmax plate reader (Molecular Devices, Menlo Park, Calif.).
Titration curves were fit with a four-parameter nonlinear regression curve-fitting program (KaleidaGraph, Synergy Software, Reading, Pa.).

Flt-1 receptor = Flt-1 receptor (Homo sapiens, UniProt P17948); assay: RIA binding assay, FLT-1 receptor; details: relative to Native VEGF 165
Sequence of Flt-1 receptor (P17948 27-1338): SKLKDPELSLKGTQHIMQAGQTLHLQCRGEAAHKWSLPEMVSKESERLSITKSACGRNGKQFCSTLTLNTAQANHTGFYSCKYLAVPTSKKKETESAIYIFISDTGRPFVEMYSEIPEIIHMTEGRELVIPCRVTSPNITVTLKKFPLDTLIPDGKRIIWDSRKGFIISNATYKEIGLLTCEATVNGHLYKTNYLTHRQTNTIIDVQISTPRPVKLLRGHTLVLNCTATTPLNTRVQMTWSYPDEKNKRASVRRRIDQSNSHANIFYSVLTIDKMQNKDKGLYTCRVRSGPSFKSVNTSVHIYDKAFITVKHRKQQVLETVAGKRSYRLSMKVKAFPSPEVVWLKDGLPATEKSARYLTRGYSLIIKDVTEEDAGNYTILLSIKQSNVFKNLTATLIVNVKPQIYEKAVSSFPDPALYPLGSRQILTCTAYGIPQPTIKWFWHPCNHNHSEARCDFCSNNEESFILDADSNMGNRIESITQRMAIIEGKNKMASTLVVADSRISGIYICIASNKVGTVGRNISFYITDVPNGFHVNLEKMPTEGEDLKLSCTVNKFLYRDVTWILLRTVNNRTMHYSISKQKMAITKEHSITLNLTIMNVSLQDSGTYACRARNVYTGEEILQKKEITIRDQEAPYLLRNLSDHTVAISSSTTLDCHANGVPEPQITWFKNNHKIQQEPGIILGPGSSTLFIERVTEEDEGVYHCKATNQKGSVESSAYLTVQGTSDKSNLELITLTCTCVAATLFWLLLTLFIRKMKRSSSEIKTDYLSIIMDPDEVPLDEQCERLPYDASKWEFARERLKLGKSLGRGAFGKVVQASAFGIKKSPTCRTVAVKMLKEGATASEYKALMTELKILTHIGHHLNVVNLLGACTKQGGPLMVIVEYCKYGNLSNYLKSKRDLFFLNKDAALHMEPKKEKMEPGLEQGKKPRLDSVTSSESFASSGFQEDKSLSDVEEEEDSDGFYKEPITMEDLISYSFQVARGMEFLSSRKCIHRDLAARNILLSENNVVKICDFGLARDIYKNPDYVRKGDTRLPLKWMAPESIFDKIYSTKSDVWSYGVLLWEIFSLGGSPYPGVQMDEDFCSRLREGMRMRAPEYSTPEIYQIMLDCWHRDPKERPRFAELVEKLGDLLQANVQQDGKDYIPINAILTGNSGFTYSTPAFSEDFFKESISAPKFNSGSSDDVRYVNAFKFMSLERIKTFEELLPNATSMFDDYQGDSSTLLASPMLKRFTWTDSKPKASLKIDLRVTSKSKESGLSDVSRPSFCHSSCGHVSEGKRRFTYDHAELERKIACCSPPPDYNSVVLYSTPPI
Text: The results are shown below in Table 6.

eNOS expression = eNOS expression by Western blot in ACE cells; format: cell-based, bovine; details: 500 pM, 2 days
Description: At the end of incubation, total cell lysates were prepared, and eNOS protein levels were determined by Western blot analysis.
Bovine adrenal cortex capillary endothelial cells (ACE) were prepared and maintained as previously described (Ferrara et.al., 1989 Biochem. Biophys. Res. Commun. 161:851–858). Briefly, cells were plated onto 6-well tissue culture plates (Costar) and grown in low glucose Dulbecco's modified Eagle's medium, supplemented with 2 mM […] (Life Technologies), 10% bovine calf serum (HyClone Lab., Inc.) and 100 μg/ml Penicillin/Streptomycin (Life Technologies). ACE cells were used between passages 4 and 8.
Medium was changed every 24 hours.
The methods for cell lysis and Western blot (WB) have been described in Shen et al., 1998 J. Biol. Chem. 273:29979–29985. A monoclonal anti-eNOS antibody was used at 1:2500 to probe eNOS protein. […] The protein bands were scanned by a densitometer and the relative intensities were quantified using IMAGEQUANT® software (Molecular Dynamics).
Confluent ACE cells were incubated with 500 pM rhVEGF. […] Equal amounts of protein were denatured under reducing conditions and separated in a 10% Novex mini gel and transferred to PVDF membrane. eNOS protein signals were visualized by ECL and quantified using densitometry.

Sequence of KDR receptor (P35968 20-327 limits assumed): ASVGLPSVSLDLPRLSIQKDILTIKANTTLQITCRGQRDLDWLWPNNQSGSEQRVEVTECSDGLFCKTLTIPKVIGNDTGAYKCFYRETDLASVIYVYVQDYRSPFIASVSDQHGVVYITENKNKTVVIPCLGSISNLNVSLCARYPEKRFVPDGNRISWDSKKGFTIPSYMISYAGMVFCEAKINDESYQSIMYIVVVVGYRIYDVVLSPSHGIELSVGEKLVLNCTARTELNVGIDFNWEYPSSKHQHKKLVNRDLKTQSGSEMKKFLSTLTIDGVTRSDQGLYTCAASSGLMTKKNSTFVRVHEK

B1: LK-VRB-1s*: VEGF (1-109) variant, M18E/Y21L/Q22R/Y25S (protein)
chain: APMAEGGGQNHHEVVKFEDVLRRSSCHPIETLVDIFQEYPDEIEYIFKPSCVPLMRCGGCCNDEGLECVPTEESNITMQIMRIKPHQGQHIGEMSFLQHNKCECRPKKD
- Relative Binding Affinity KDR Receptor (KDR receptor): 1 nM/1
- Relative Binding Affinity FLT-1 Receptor (Flt-1 receptor): 14,000

B2: TGF-beta2: recombinant human transforming growth factor (protein, UniProt P61812 303-414, looked up)
Transforming growth factor …: ALDAAYCFRNVQDNCCLRPLYIDFKRDLGWKWIHEPKGYNANFCAGACPYLWSSDTQHSRVLSLYNTINPEASASPCCVSQDLEPLTILYYIGKTPKIEQLSNMIVKSCKCS
modifications: Transforming growth factor beta-2
- eNOS expression with angiogenic factors (eNOS expression): reduced endogenous eNOS expression
